Experimental data reported in patent publication US10058586B2, “Use of human small leucine zipper protein in adipocyte differentiation procedure” (Korea University Research and Business Foundation, priority 2013, dated 2018).

T1: PPARγ2 (Homo sapiens, UniProt P37231)
T1 sequence (P37231 1-505): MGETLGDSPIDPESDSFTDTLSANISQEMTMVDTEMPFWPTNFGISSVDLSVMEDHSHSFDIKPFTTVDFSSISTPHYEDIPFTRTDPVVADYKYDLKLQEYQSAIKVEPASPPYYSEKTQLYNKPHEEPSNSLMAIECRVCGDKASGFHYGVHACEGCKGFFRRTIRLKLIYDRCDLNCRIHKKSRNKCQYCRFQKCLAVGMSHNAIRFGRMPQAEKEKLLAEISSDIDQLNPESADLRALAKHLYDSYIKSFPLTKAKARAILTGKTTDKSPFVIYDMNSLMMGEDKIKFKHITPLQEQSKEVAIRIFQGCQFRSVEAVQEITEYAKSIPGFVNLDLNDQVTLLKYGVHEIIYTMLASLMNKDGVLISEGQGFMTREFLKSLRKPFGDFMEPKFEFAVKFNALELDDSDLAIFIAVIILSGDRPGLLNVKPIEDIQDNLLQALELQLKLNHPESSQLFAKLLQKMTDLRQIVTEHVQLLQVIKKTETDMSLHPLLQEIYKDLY

B1: N domains of sLZIP: N-terminal deletion mutant of sLZIP, residues 1-228 (protein)
chain: MELELDAGDQDLLAFLLEESGDLGTAPDEAVRAPLDWALPLSEVPSDWEVDDLLCSLLSPPASLNILSSSNPCLVHHDHTYSLPRETVSMDLESESCRKEGTQMTPQHMEELAEQEIARLVLTDEEKSLLEKEGLILPETLPLTKTEEQILKRVRRKIRNKRSAQESRRKKKVYVGGLESRVLKYTAQNMELQNKVQLLEEQNLSLLDQLRKLQAMVIEISNKTSSSS
modifications: left off: a dimerising Fc or GST
B2: sLZIP: human small leucine-zipper protein, isoform of LZIP, 354 amino acids, no transmembrane domain; GenBank FJ263669, SEQ ID NO: 1 (protein, listed as Homo sapiens)
chain: MELELDAGDQDLLAFLLEESGDLGTAPDEAVRAPLDWALPLSEVPSDWEVDDLLCSLLSPPASLNILSSSNPCLVHHDHTYSLPRETVSMDLESESCRKEGTQMTPQHMEELAEQEIARLVLTDEEKSLLEKEGLILPETLPLTKTEEQILKRVRRKIRNKRSAQESRRKKKVYVGGLESRVLKYTAQNMELQNKVQLLEEQNLSLLDQLRKLQAMVIEISNKTSSSSMYSSDTRGSLPAEHGVLSRQLRALPSEDPYQLELPALQSEVPKDSTHQWLDGSDCVLQAPGNTSCLLHYMPQAPSAEPPLEWPFPDLFSEPLCRGPILPLQANLTRKGGWLPTGSPSVILQDRYSG

Molecular target: T1, PPARγ2
Experiment: Luciferase reporter gene analysis (FABP4-Luc) of PPARγ2 transcriptional activity in 293T cells
Type: cell-based
Parameters: expressed in transfected cells; host or cells: 293T cells
Conditions: 293T cells; for PPARγ2 transcriptional activity (luciferase): sLZIP or deletion mutants 0.1 μg, RZD treated; for transcriptional activity of PPARγ2 (luciferase): sLZIP 0.1 μg
Protocol: C3H10T1/2 and 293T cells were plated in a 12-well culture dish at a density of 2×10^5 cells/well and incubated for 24 hours. Then, according to instructions of the manufacturer, the cells were transfected with a 0.2 μg of reporter genes and 0.1 to 0.5 μg of a laboratory plasmid using Lipofectamine 2000 or Genefectine. After 24 hours, the cells were cultured in a serum-free DMEM with or without 10 nM of rosiglitazone. siRNAs were prepared using sLZIP and HDAC target sequences (Table 1). For an RNA interference experiment, according to instructions of the manufacturer, the cells were transfected with scrambled control group RNA and appropriate siRNAs using Lipofectamine 2000. Human MSC and C3H10T/1/2 cells were infected with an adenovirus vector containing cDNA of human sLZIP or an empty vector. The infected medium was exchanged with a fresh medium after two hours.
Appropriately transfected cells were washed with cold PBS twice, and a reporter lysis buffer (Promega) was used and lysed in a culture dish. Luciferase analysis was performed using a luciferase analysis system (Promega Corporation, Madison, Wis.). A luciferase activity was recorded in Luminometer 20/20^n (Turner BioSystems, Sunnyvale, Calif.) according to instructions of the manufacturer. The luciferase activity was normalized to a β-galactosidase activity. For β-galactosidase analysis, CMV-β-galactosidase was transfected with luciferase reporter genes. All pieces of data were represented as mean±standard deviation of the results from at least three independent experiments.
In order to examine an effect of sLZIP on the transcriptional activity of PPARγ2, 293T cells were temporarily transfected with PPARγ2 (0.5 μg), β-galactosidase (0.1 μg), FABP4-Luc reporter genes (0.2 μg) and sLZIP at different contents (0.1 to 0.5 μg). After the transfection, the cells were stimulated with or without 10 nM of rosiglitazone (RZD) (FIG. 1A), pioglitazone (PZD) (FIG. 1B), and troglitazone (TZD) (FIG. 1C). A relative luciferase activity was analyzed with or without cell ligand treatment 24 hours after transfection. Also, the 293T cells were transiently transfected with si-sLZIP at different contents (50 and 100 nM), and the cells were treated or not treated with RZD (FIG. 1D). FABP4-Luc stable C3H10T1/2 cells were infected with a sLZIP-expressing adenovirus, and then differentiated into adipocytes for 4 days (FIG. 1E). A luciferase activity was normalized to a β-galactosidase activity and represented as a relative activity (fold change). All experiments were repeated three times, and bars in the graph represent mean±standard deviation. *, P<0.05; **, P<0.01
For this purpose, 293T cells were transiently transfected with PPARγ2 (0.5 μg), (3-galactosidase (0.1 μg), FABP4-Luc reporter genes (0.2 μg) and sLZIP (0.1 μg). After the transfection, the cells were stimulated with or without 10 nM of RZD and 10 nM of TSA (FIG. 4A). A promoter activity was measured according to luciferase analysis. In the 293T cells, FABP4-Luc reporter genes, sLZIP, PPAR, β-galactosidase, and 100 nM of si-RNAs and HDAC1, 2, 3 and 8 for a control group were expressed. After the transfection, the cells were stimulated with or without 10 nM of RZD, and a promoter activity was measured (FIG. 4B). 293T cells were temporarily transfected with FABP4-Luc reporter genes, PPARγ2, β-galactosidase, HDAC3 (0.5 μg) and sLZIP (0.1 μg). After the transfection, the cells were stimulated with or without 10 nM of RZD, and luciferase analysis was performed (FIG. 4C). A luciferase activity was normalized to a β-galactosidase activity and represented as a relative intensity (fold change). All experiments were repeated three times, and bars in the graph represent mean±standard deviation. GFP-sLZIP expression constructs were expressed in C3H10T1/2 cells, rabbit anti-HDAC3 antibodies and Texas Red-labeled anti-rabbit antibodies were used and analysis was performed under a fluorescence microscope. The nucleus was stained with DAPI (FIG. 4D). […]

Molecule | PPARγ2 transcriptional activity (luciferase) | transcriptional activity of PPARγ2 (luciferase) (cells treated with 10 nM TSA (HDAC inhibitor)) | transcriptional activity of PPARγ2 (luciferase) (no TSA) | transcriptional activity of PPARγ2 (relative luciferase activity) (sLZIP 0.1 to 0.5 μg, with or without 10 nM RZD, PZD or TZD) | sLZIP-mediated PPARγ2 transcriptional activity (luciferase) (transfection of both sLZIP (0.1 μg) and HDAC3 (0.5 μg))
B1 | The transcriptional activity of PPARγ2 was inhibited |  |  |  | 
B2 | still inhibited the PPARγ2 transcriptional activity | did not decrease the transcriptional activity of PPARγ2 | inhibits the transcriptional activity of PPARγ2 | inhibits the transcriptional activity of PPARγ2 in a concentration-dependent manner | significantly down-regulated
